{
  "source": "patent US20170247475A1",
  "key": {"[1]": {"target": "cyno serum albumin (cyno)", "sequence (A2V9Z4 25-608)": "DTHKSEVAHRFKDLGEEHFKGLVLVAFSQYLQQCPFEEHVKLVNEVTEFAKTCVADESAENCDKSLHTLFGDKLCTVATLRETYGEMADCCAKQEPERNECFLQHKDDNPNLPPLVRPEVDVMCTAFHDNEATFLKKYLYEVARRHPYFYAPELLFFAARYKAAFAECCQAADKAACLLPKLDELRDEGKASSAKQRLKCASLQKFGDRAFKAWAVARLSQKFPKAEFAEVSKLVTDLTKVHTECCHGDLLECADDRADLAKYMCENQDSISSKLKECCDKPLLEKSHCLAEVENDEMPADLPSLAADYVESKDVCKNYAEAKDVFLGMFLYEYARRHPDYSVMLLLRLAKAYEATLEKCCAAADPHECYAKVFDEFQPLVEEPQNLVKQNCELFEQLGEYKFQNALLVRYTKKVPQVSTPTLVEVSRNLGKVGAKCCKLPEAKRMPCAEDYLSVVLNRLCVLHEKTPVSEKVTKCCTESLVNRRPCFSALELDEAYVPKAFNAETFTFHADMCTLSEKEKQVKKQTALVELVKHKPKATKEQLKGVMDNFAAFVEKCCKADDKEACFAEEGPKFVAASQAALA", "experiment": "SPR, albumin on chip, 1:1 interaction model"}, "[2]": {"target": "mouse serum albumin (mouse) (UniProt P07724)", "sequence (P07724 25-608 limits assumed)": "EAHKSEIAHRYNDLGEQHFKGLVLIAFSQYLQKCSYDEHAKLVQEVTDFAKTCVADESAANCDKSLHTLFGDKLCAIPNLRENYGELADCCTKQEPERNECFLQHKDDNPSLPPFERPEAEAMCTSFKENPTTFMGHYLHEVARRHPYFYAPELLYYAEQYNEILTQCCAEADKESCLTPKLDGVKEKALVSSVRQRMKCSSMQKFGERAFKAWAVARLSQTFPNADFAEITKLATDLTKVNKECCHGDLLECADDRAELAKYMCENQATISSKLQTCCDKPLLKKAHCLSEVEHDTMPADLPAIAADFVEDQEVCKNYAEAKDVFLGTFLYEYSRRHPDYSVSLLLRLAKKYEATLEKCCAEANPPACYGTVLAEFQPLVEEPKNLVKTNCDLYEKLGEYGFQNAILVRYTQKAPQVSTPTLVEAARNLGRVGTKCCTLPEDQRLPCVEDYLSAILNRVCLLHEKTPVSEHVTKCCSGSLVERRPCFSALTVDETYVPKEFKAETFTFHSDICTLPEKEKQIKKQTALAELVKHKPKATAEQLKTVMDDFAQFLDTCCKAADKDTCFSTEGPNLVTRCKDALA", "experiment": "SPR, albumin on chip, 1:1 interaction model"}, "[3]": {"target": "human serum albumin (human) (UniProt P02768)", "experiment": "SPR, albumin on chip, 1:1 interaction model"}, "[4]": {"target": "cyno serum albumin (cyno)", "experiment": "SPR, albumin on CM5 chip, multicycle kinetics"}, "[5]": {"target": "mouse serum albumin (mouse) (UniProt P07724)", "experiment": "SPR, albumin on CM5 chip, multicycle kinetics"}, "[6]": {"target": "human serum albumin (human) (UniProt P02768)", "experiment": "SPR, albumin on CM5 chip, multicycle kinetics"}, "mAng2 [7]": {"target": "mAng2", "sequence (chain, as listed by the source limits assumed)": "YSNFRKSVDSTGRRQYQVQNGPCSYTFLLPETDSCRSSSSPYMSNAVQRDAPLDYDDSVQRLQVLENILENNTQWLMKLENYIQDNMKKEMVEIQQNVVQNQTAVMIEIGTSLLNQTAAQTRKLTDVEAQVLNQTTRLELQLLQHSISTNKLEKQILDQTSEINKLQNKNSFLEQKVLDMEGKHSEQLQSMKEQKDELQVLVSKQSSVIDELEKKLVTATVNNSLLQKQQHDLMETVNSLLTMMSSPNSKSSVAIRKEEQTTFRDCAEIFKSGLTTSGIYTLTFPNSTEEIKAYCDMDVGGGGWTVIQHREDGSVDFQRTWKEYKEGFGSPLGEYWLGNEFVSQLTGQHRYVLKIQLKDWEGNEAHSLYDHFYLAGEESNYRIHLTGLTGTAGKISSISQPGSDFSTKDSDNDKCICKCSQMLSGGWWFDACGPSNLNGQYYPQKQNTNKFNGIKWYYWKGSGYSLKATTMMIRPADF", "experiment": "competition ELISA, blocking of mAng2 binding to mTie2"}, "mAng2 [8]": {"target": "mAng2", "experiment": "competition ELISA mAng2/mTie2-Fc; blocked: mTie2-Fc"}, "hAng2 [9]": {"target": "hAng2", "sequence (chain, as listed by the source limits assumed)": "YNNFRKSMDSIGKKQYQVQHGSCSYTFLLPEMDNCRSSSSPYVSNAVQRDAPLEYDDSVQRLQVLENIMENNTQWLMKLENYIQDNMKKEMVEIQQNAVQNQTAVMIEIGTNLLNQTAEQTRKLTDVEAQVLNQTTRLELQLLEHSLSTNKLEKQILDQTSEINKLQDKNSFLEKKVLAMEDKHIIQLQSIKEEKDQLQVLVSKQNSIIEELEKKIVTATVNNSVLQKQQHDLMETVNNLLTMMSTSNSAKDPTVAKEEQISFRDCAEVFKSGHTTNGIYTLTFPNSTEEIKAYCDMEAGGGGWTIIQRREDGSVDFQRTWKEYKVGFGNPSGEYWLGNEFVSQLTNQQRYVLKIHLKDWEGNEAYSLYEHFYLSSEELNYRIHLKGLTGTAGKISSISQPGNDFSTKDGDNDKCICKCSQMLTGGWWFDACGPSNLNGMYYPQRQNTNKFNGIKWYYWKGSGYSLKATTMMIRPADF", "experiment": "competition ELISA hAng2/hTie2-Fc; blocked: hTie2-Fc"}, "hAng2 [10]": {"target": "hAng2", "experiment": "competition ELISA hAng2/hTie2-Fc; blocked: hTie2-Fc", "remark": "listed apart in the source"}, "[11]": {"target": "cAng2 (cynomolgus monkey)", "experiment": "competition ELISA, blocking of cAng2 binding to cTie2"}, "hAng2 [12]": {"target": "hAng2", "experiment": "competition ELISA, blocking of hAng2 binding to hTie2-Fc"}, "hAng2 [13]": {"target": "hAng2", "experiment": "competition ELISA, blocking of hAng2 binding to hTie2-Fc", "remark": "listed apart in the source"}, "mAng2 [14]": {"target": "mAng2", "experiment": "competition ELISA, blocking of mAng2 binding to mTie2-Fc"}, "mAng2 [15]": {"target": "mAng2", "experiment": "competition ELISA, blocking of mAng2 binding to mTie2", "remark": "listed apart in the source"}, "mAng2 [16]": {"target": "mAng2", "experiment": "competition ELISA mAng2/mTie2-Fc; blocked: mTie2-Fc", "remark": "listed apart in the source"}, "[17]": {"target": "cAng2 (cynomolgus monkey)", "experiment": "competition ELISA, blocking of cAng2 binding to cTie2", "remark": "listed apart in the source"}, "hAng2 [18]": {"target": "hAng2", "experiment": "competition ELISA, blocking of hAng2 binding to hTie2"}, "[19]": {"target": "cAng2 (cynomolgus monkey)", "experiment": "competition ELISA, blocking of cAng2 binding to cTie2", "remark": "listed apart in the source"}, "hAng2 [20]": {"target": "hAng2", "experiment": "competition ELISA hAng2/hTie2-Fc; blocked: hTie2-Fc", "remark": "listed apart in the source"}, "hAng2 [21]": {"target": "hAng2", "experiment": "competition ELISA, blocking of hAng2 binding to hTie2", "remark": "listed apart in the source"}, "mAng2 [22]": {"target": "mAng2", "experiment": "competition ELISA, blocking of mAng2 binding to mTie2", "remark": "listed apart in the source"}, "[23]": {"target": "cAng2 (cynomolgus monkey)", "experiment": "competition ELISA, blocking of cAng2 binding to cTie2-Fc"}, "hAng2 [24]": {"target": "hAng2"}, "hAng2 [25]": {"target": "hAng2", "experiment": "competition ELISA, blocking of hAng2 binding to hTie2", "remark": "listed apart in the source"}, "hAng2 [26]": {"target": "hAng2", "experiment": "competition ELISA, blocking of hAng2 binding to hTie2-Fc", "remark": "listed apart in the source"}},
  "data": [
    {"substance": "ALB11 (VHH)", "values": [
      {"measurement": "Kd", "setting": "[1]", "result": 4000, "unit": "pM"},
      {"measurement": "Kd", "setting": "[2]", "result": 51000, "unit": "pM"},
      {"measurement": "koff", "setting": "[2]", "result": 0.03, "unit": "s⁻¹"},
      {"measurement": "Kd", "setting": "[3]", "result": 4000, "unit": "pM"},
      {"measurement": "koff", "setting": "[3]", "result": 0.0019, "unit": "s⁻¹"},
      {"measurement": "Kd", "setting": "[4]", "result": 4000, "unit": "pM"},
      {"measurement": "koff", "setting": "[4]", "result": 0.0016, "unit": "s⁻¹"},
      {"measurement": "Kd", "setting": "[5]", "result": 49000, "unit": "pM"},
      {"measurement": "koff", "setting": "[5]", "result": 0.032, "unit": "s⁻¹"},
      {"measurement": "Kd", "setting": "[6]", "result": 4000, "unit": "pM"},
      {"measurement": "koff", "setting": "[6]", "result": 0.0018, "unit": "s⁻¹"}
    ]},
    {"substance": "AMG386", "values": [
      {"measurement": "IC50 (read off the curve)", "setting": "mAng2 [7]", "result": 3, "unit": "pM"},
      {"measurement": "IC50 (read off the curve)", "setting": "mAng2 [8]", "result": 6, "unit": "pM"},
      {"measurement": "IC50 (read off the curve)", "setting": "hAng2 [9]", "result": 4, "unit": "pM"},
      {"measurement": "IC50 (read off the curve)", "setting": "hAng2 [10]", "result": 6, "unit": "pM"},
      {"measurement": "IC50 (read off the curve)", "setting": "[11]", "result": 3, "unit": "pM"},
      {"measurement": "IC50 (read off the curve)", "setting": "hAng2 [12]", "result": 2, "unit": "pM"},
      {"measurement": "IC50 (read off the curve)", "setting": "hAng2 [13]", "result": 3, "unit": "pM"},
      {"measurement": "IC50 (read off the curve)", "setting": "mAng2 [14]", "result": 2, "unit": "pM"},
      {"measurement": "IC50 (read off the curve)", "setting": "mAng2 [15]", "result": 9, "unit": "pM"},
      {"measurement": "IC50 (read off the curve)", "setting": "mAng2 [16]", "result": 5, "unit": "pM"},
      {"measurement": "IC50 (read off the curve)", "setting": "[17]", "result": 30, "unit": "pM"},
      {"measurement": "IC50 (read off the curve)", "setting": "hAng2 [18]", "result": 6, "unit": "pM"},
      {"measurement": "IC50 (read off the curve)", "setting": "[19]", "result": 4, "unit": "pM"},
      {"measurement": "IC50 (read off the curve)", "setting": "hAng2 [20]", "result": 7, "unit": "pM"},
      {"measurement": "IC50 (read off the curve)", "setting": "hAng2 [21]", "result": 1, "unit": "pM"},
      {"measurement": "IC50 (read off the curve)", "setting": "mAng2 [22]", "result": 1, "unit": "pM"},
      {"measurement": "IC50 (read off the curve)", "setting": "[23]", "result": 10, "unit": "pM"},
      {"measurement": "IC50 (read off the curve), hAng2 mediated HUVEC survival", "setting": "hAng2 [24]", "result": 1000, "unit": "pM"},
      {"measurement": "IC50 (read off the curve)", "setting": "hAng2 [25]", "result": 3, "unit": "pM"},
      {"measurement": "IC50 (read off the curve)", "setting": "hAng2 [26]", "result": 3, "unit": "pM"}
    ]}
  ]
}
